B1: Full-length ADAMTS13 variant NGLY2 (590PLFTH594 to 590PNFTH594) (protein)
chain: AAGGILHLELLVAVGPDVFQAHQEDTERYVLTNLNIGAELLRDPSLGAQFRVHLVKMVILTEPEGAPNITANLTSSLLSVCGWSQTINPEDDTDPGHADLVLYITRFDLELPDGNRQVRGVTQLGGACSPTWSCLITEDTGFDLGVTIAHEIGHSFGLEHDGAPGSGCGPSGHVMASDGAAPRAGLAWSPCSRRQLLSLLSAGRARCVWDPPRPQPGSAGHPPDAQPGLYYSANEQCRVAFGPKAVACTFAREHLDMCQALSCHTDPLDQSSCSRLLVPLLDGTECGVEKWCSKGRCRSLVELTPIAAVHGRWSSWGPRSPCSRSCGGGVVTRRRQCNNPRPAFGGRACVGADLQAEMCNTQACEKTQLEFMSQQCARTDGQPLRSSPGGASFYHWGAAVPHSQGDALCRHMCRAIGESFIMKRGDSFLDGTRCMPSGPREDGTLSLCVSGSCRTFGCDGRMDSQQVWDRCQVCGGDNSTCSPRKGSFTAGRAREYVTFLTVTPNLTSVYIANHRPNFTHLAVRIGGRYVVAGKMSISPNTTYPSLLEDGRVEYRVALTEDRLPRLEEIRIWGPLQEDADIQVYRRYGEEYGNLTRPDITFTYFQPKPRQAWVWAAVRGPCSVSCGAGLRWVNYSCLDQARKELVETVQCQGSQQPPAWPEACVLEPCPPYWAVGDFGPCSASCGGGLRERPVRCVEAQGSLLKTLPPARCRAGAQQPAVALETCNPQPCPARWEVSEPSSCTSAGGAGLALENETCVPGADGLEAPVTEGPGSVDEKLPAPEPCVGMSCPPGWGHLDATSAGEKAPSPWGSIRTGAQAAHVWTPAAGSCSVSCGRGLMELRFLCMDSALRVPVQEELCGLASKPGSRREVCQAVPCPARWQYKLAACSVSCGRGVVRRILYCARAHGEDDGEEILLDTQCQGLPRPEPQEACSLEPCPPRWKVMSLGPCSASCGLGTARRSVACVQLDQGQDVEVDEAACAALVRPEASVPCLIADCTYRWHVGTWMECSVSCGDGIQRRRDTCLGPQAQAPVPADFCQHLPKPVTVRGCWAGPCVGQGTPSLVPHEEAAAPGRTTATPAGASLEWSQARGLLFSPAPQPRRLLPGPQENSVQSSACGRQHLEPTGTIDMRGPGQADCAVAIGRPLGEVVTLRVLESSLNCSAGDMLLLWGRLTWRKMCRKLLDMTFSSKTNTLVVRQRCGRPGGGVLLRYGSQLAPETFYRECDMQLFGPWGEIVSPSLSPATSNAGGCRLFINVAPHARIAIHALATNMGAGTEGANASYILIRDTHSLRTTAFHGQQVLYWESESSQAEMEFSEGFLKAQASLRGQYWTLQSWVPEMQDPQSWKGKEGTHHHHHH
B2: Full-length ADAMTS13 variant NGLY3 (607GKMSI611 to 607GNMSI611; K608N) (protein)
chain: AAGGILHLELLVAVGPDVFQAHQEDTERYVLTNLNIGAELLRDPSLGAQFRVHLVKMVILTEPEGAPNITANLTSSLLSVCGWSQTINPEDDTDPGHADLVLYITRFDLELPDGNRQVRGVTQLGGACSPTWSCLITEDTGFDLGVTIAHEIGHSFGLEHDGAPGSGCGPSGHVMASDGAAPRAGLAWSPCSRRQLLSLLSAGRARCVWDPPRPQPGSAGHPPDAQPGLYYSANEQCRVAFGPKAVACTFAREHLDMCQALSCHTDPLDQSSCSRLLVPLLDGTECGVEKWCSKGRCRSLVELTPIAAVHGRWSSWGPRSPCSRSCGGGVVTRRRQCNNPRPAFGGRACVGADLQAEMCNTQACEKTQLEFMSQQCARTDGQPLRSSPGGASFYHWGAAVPHSQGDALCRHMCRAIGESFIMKRGDSFLDGTRCMPSGPREDGTLSLCVSGSCRTFGCDGRMDSQQVWDRCQVCGGDNSTCSPRKGSFTAGRAREYVTFLTVTPNLTSVYIANHRPLFTHLAVRIGGRYVVAGNMSISPNTTYPSLLEDGRVEYRVALTEDRLPRLEEIRIWGPLQEDADIQVYRRYGEEYGNLTRPDITFTYFQPKPRQAWVWAAVRGPCSVSCGAGLRWVNYSCLDQARKELVETVQCQGSQQPPAWPEACVLEPCPPYWAVGDFGPCSASCGGGLRERPVRCVEAQGSLLKTLPPARCRAGAQQPAVALETCNPQPCPARWEVSEPSSCTSAGGAGLALENETCVPGADGLEAPVTEGPGSVDEKLPAPEPCVGMSCPPGWGHLDATSAGEKAPSPWGSIRTGAQAAHVWTPAAGSCSVSCGRGLMELRFLCMDSALRVPVQEELCGLASKPGSRREVCQAVPCPARWQYKLAACSVSCGRGVVRRILYCARAHGEDDGEEILLDTQCQGLPRPEPQEACSLEPCPPRWKVMSLGPCSASCGLGTARRSVACVQLDQGQDVEVDEAACAALVRPEASVPCLIADCTYRWHVGTWMECSVSCGDGIQRRRDTCLGPQAQAPVPADFCQHLPKPVTVRGCWAGPCVGQGTPSLVPHEEAAAPGRTTATPAGASLEWSQARGLLFSPAPQPRRLLPGPQENSVQSSACGRQHLEPTGTIDMRGPGQADCAVAIGRPLGEVVTLRVLESSLNCSAGDMLLLWGRLTWRKMCRKLLDMTFSSKTNTLVVRQRCGRPGGGVLLRYGSQLAPETFYRECDMQLFGPWGEIVSPSLSPATSNAGGCRLFINVAPHARIAIHALATNMGAGTEGANASYILIRDTHSLRTTAFHGQQVLYWESESSQAEMEFSEGFLKAQASLRGQYWTLQSWVPEMQDPQSWKGKEGTHHHHHH
B3: Full-length wild-type ADAMTS13 (1427 amino acids) (protein)
chain: AAGGILHLELLVAVGPDVFQAHQEDTERYVLTNLNIGAELLRDPSLGAQFRVHLVKMVILTEPEGAPNITANLTSSLLSVCGWSQTINPEDDTDPGHADLVLYITRFDLELPDGNRQVRGVTQLGGACSPTWSCLITEDTGFDLGVTIAHEIGHSFGLEHDGAPGSGCGPSGHVMASDGAAPRAGLAWSPCSRRQLLSLLSAGRARCVWDPPRPQPGSAGHPPDAQPGLYYSANEQCRVAFGPKAVACTFAREHLDMCQALSCHTDPLDQSSCSRLLVPLLDGTECGVEKWCSKGRCRSLVELTPIAAVHGRWSSWGPRSPCSRSCGGGVVTRRRQCNNPRPAFGGRACVGADLQAEMCNTQACEKTQLEFMSQQCARTDGQPLRSSPGGASFYHWGAAVPHSQGDALCRHMCRAIGESFIMKRGDSFLDGTRCMPSGPREDGTLSLCVSGSCRTFGCDGRMDSQQVWDRCQVCGGDNSTCSPRKGSFTAGRAREYVTFLTVTPNLTSVYIANHRPLFTHLAVRIGGRYVVAGKMSISPNTTYPSLLEDGRVEYRVALTEDRLPRLEEIRIWGPLQEDADIQVYRRYGEEYGNLTRPDITFTYFQPKPRQAWVWAAVRGPCSVSCGAGLRWVNYSCLDQARKELVETVQCQGSQQPPAWPEACVLEPCPPYWAVGDFGPCSASCGGGLRERPVRCVEAQGSLLKTLPPARCRAGAQQPAVALETCNPQPCPARWEVSEPSSCTSAGGAGLALENETCVPGADGLEAPVTEGPGSVDEKLPAPEPCVGMSCPPGWGHLDATSAGEKAPSPWGSIRTGAQAAHVWTPAAGSCSVSCGRGLMELRFLCMDSALRVPVQEELCGLASKPGSRREVCQAVPCPARWQYKLAACSVSCGRGVVRRILYCARAHGEDDGEEILLDTQCQGLPRPEPQEACSLEPCPPRWKVMSLGPCSASCGLGTARRSVACVQLDQGQDVEVDEAACAALVRPEASVPCLIADCTYRWHVGTWMECSVSCGDGIQRRRDTCLGPQAQAPVPADFCQHLPKPVTVRGCWAGPCVGQGTPSLVPHEEAAAPGRTTATPAGASLEWSQARGLLFSPAPQPRRLLPGPQENSVQSSACGRQHLEPTGTIDMRGPGQADCAVAIGRPLGEVVTLRVLESSLNCSAGDMLLLWGRLTWRKMCRKLLDMTFSSKTNTLVVRQRCGRPGGGVLLRYGSQLAPETFYRECDMQLFGPWGEIVSPSLSPATSNAGGCRLFINVAPHARIAIHALATNMGAGTEGANASYILIRDTHSLRTTAFHGQQVLYWESESSQAEMEFSEGFLKAQASLRGQYWTLQSWVPEMQDPQSWKGKEGTHHHHHH
B4: Full-length ADAMTS13 variant NGLY4 (608KMSIS612 to 608KNSTS612) (protein)
chain: AAGGILHLELLVAVGPDVFQAHQEDTERYVLTNLNIGAELLRDPSLGAQFRVHLVKMVILTEPEGAPNITANLTSSLLSVCGWSQTINPEDDTDPGHADLVLYITRFDLELPDGNRQVRGVTQLGGACSPTWSCLITEDTGFDLGVTIAHEIGHSFGLEHDGAPGSGCGPSGHVMASDGAAPRAGLAWSPCSRRQLLSLLSAGRARCVWDPPRPQPGSAGHPPDAQPGLYYSANEQCRVAFGPKAVACTFAREHLDMCQALSCHTDPLDQSSCSRLLVPLLDGTECGVEKWCSKGRCRSLVELTPIAAVHGRWSSWGPRSPCSRSCGGGVVTRRRQCNNPRPAFGGRACVGADLQAEMCNTQACEKTQLEFMSQQCARTDGQPLRSSPGGASFYHWGAAVPHSQGDALCRHMCRAIGESFIMKRGDSFLDGTRCMPSGPREDGTLSLCVSGSCRTFGCDGRMDSQQVWDRCQVCGGDNSTCSPRKGSFTAGRAREYVTFLTVTPNLTSVYIANHRPLFTHLAVRIGGRYVVAGKNSTSPNTTYPSLLEDGRVEYRVALTEDRLPRLEEIRIWGPLQEDADIQVYRRYGEEYGNLTRPDITFTYFQPKPRQAWVWAAVRGPCSVSCGAGLRWVNYSCLDQARKELVETVQCQGSQQPPAWPEACVLEPCPPYWAVGDFGPCSASCGGGLRERPVRCVEAQGSLLKTLPPARCRAGAQQPAVALETCNPQPCPARWEVSEPSSCTSAGGAGLALENETCVPGADGLEAPVTEGPGSVDEKLPAPEPCVGMSCPPGWGHLDATSAGEKAPSPWGSIRTGAQAAHVWTPAAGSCSVSCGRGLMELRFLCMDSALRVPVQEELCGLASKPGSRREVCQAVPCPARWQYKLAACSVSCGRGVVRRILYCARAHGEDDGEEILLDTQCQGLPRPEPQEACSLEPCPPRWKVMSLGPCSASCGLGTARRSVACVQLDQGQDVEVDEAACAALVRPEASVPCLIADCTYRWHVGTWMECSVSCGDGIQRRRDTCLGPQAQAPVPADFCQHLPKPVTVRGCWAGPCVGQGTPSLVPHEEAAAPGRTTATPAGASLEWSQARGLLFSPAPQPRRLLPGPQENSVQSSACGRQHLEPTGTIDMRGPGQADCAVAIGRPLGEVVTLRVLESSLNCSAGDMLLLWGRLTWRKMCRKLLDMTFSSKTNTLVVRQRCGRPGGGVLLRYGSQLAPETFYRECDMQLFGPWGEIVSPSLSPATSNAGGCRLFINVAPHARIAIHALATNMGAGTEGANASYILIRDTHSLRTTAFHGQQVLYWESESSQAEMEFSEGFLKAQASLRGQYWTLQSWVPEMQDPQSWKGKEGTHHHHHH

How the values were obtained:
[1] = biological target: T1, FRETS-VWF73 fluorogenic substrate, P04275
T1 chain: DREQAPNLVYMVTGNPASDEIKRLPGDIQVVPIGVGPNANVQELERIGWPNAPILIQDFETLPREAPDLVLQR

[2] = biological target: Von Willebrand Factor (VWF) multimers, P04275

| Protein | FRETS-VWF73 activity relative to wild-type ADAMTS13 [1] | VWF multimer assay (urea-denatured recombinant VWF) [2] | Activity level (% relative to wild type ADAMTS13) VWFFRETS73 (% relative to wild type ADAMTS13) [1] | Ability to process VWF multimers under denaturing conditions [2] | vortex assay: processing of VWF multimers under shear stress [2] | vortex assay: processing of VWF multimers under turbulent flow [2] |
| --- | --- | --- | --- | --- | --- | --- |
| B1 | The ability of NGLY1, 2, 3 and 4 was similar or higher when compared to wild-type ADAMTS13 | a reduced VWF processing activity was observed for NGLY2 and NGLY5 |  |  |  |  |
| B2 | The ability of NGLY1, 2, 3 and 4 was similar or higher when compared to wild-type ADAMTS13 | The VWF processing activity of NGLY3 and NGLY4 was similar to that of the wild-type ADAMTS13 | 125 | ++++++ | Under these conditions NGLY3 was fully active |  |
| B3 |  |  | 100 | ++++++ |  | resulted in loss of the high molecular weight multimers from the sample |
| B4 | The ability of NGLY1, 2, 3 and 4 was similar or higher when compared to wild-type ADAMTS13 | The VWF processing activity of NGLY3 and NGLY4 was similar to that of the wild-type ADAMTS13 |  |  |  |  |

Reference: patent US12698494
